Key:
Experiment in all cases: radioligand binding
[1] = target: OppAMTB mutant N110A (Mycobacterium tuberculosis) (UniProt P9WGU5)
[2] = target: OppAMTB mutant N230G (Mycobacterium tuberculosis) (UniProt P9WGU5)
[3] = target: OppAMTB mutant D494N (Mycobacterium tuberculosis) (UniProt P9WGU5)
[4] = target: OppAMTB mutant F496D (Mycobacterium tuberculosis) (UniProt P9WGU5)
[5] = target: OppAMTB mutant G109S (Mycobacterium tuberculosis) (UniProt P9WGU5)

Measured: loss of binding activity against wild type

bradykinin (nonapeptide)
> 50%: all assays above

glutathione (tripeptide)
> 50%: all assays above
